Test results: PMC3903573, “Effects of an Anticarcinogenic Bowman-Birk Protease Inhibitor on Purified 20S Proteasome and MCF-7 Breast Cancer Cells” (PLoS ONE, 2014)

What was measured:
[1] = molecular target: 20S proteasome purified from horse erythrocytes (horse); assay: enzyme inhibition assay (fluorogenic substrates, Morrison equation); 20S proteasome 2.0 µg/mL with BTCI 2.0 to 30.0 µg/mL and 62.5 µg/mL fluorogenic substrate; 20.0 mM Tris-HCl pH 7.5, 1.0 mM EDTA, 1.0 mM NaN3, 1.0 mM DTT; room temperature, 60 min; Ki fitted with GRAFIT; conditions: both partners purified
[2] = molecular target: the molecule itself; assay: dynamic light scattering; BTCI alone, 15 µM, pH 7.5; hydrodynamic diameter 4.5 nm

KI or Kd, caspase-like site [1]: 1400 nM
KI or Kd, chymotrypsin-like site [1]: 700 nM
KI or Kd, trypsin-like site [1]: 100 nM
B1: Black-eyed pea Trypsin/Chymotrypsin Inhibitor (natural protein, Vigna unguiculata (Cowpea), UniProt P17734 1-83, looked up)
chain: SGHHXXSTXXASXSSKPCCRXCACTKSIPPXCRCSXVRLNSCHSACKSCACTFSIPAXCFCGXIXXFCYKPCKSSHSXXXXWN
modifications: X not resolved here
notes: 83 amino acid residues, seven disulfide bonds, 9.1 kDa; reactive sites Lys26 (trypsin) and Phe53 (chymotrypsin); By DLS a trimer at 15 µM and pH 7.5; also called BTCI; source: isolated from Vigna unguiculata (Cowpea) seeds, purified as previously described [29]
stoichiometry N [2]: 3
